Reference: paper PMC3169409

Columns and labels:
[1] = target: nitrilotriacetate monooxygenase component B from Mycobacterium thermoresistibile (Mycobacterium thermoresistibile); assay: SEC; Superdex 75 26/60 in 20 mM HEPES pH 7.0, 300 mM NaCl, 5% glycerol, 1 mM TCEP
[2] = target: nitrilotriacetate monooxygenase component B from Mycobacterium thermoresistibile (Mycobacterium thermoresistibile); assay: crystal structure; apo structure at 1.6 Å, space group P212121; two independent dimers in the asymmetric unit; crystals from 0.2 M magnesium chloride, 0.1 M MES pH 6.0, 20% PEG 6000 at 289 K

stoichiometry N [1]: 2
stoichiometry N [2]: 2
Substance: nitrilotriacetate monooxygenase component B from Mycobacterium thermoresistibile (enzyme)
